In patent US5919694A, “Mutant phosphoenolpyruvate carboxylase, its gene, and production method of amino acid” (Ajinomoto Co., Inc., priority 1993, dated 1999):

Key:
Escherichia coli HB101 = experiment: Growth inhibition of Escherichia coli HB101 by aspartic acid analog compounds and recovery by additives; format: cell-based; conditions: E. coli HB101 in M9 medium, absorbance at 660 nm; FIGS. 1-3
Procedure: It is proposed, as a general structure of an inhibitor of phosphoenolpyruvate carboxylase, that a C4 dicarboxylic acid structure is essentially provided. From such a viewpoint, various compounds were subjected to screening by the present inventors. Escherichia coli HB101 was cultivated in an LB medium, and transferred to M9 media (containing 20 μg/ml of thiamine and 3 μg/ml of each of Leu and Pro) containing any one of DL-2-amino-4-phosphonobutyric acid, bromosuccinic acid, meso-2,3-dibromosuccinic acid, 2,2-difluorosuccinic acid, 3-bromopyruvic acid, α-ketobutyric acid, α-ketoadipinic acid DL-threo-β-hydroxyaspartic acids L-aspartic acid β-metyl ester α-metyl-DL-aspartic acid, 2,3-diaminosuccinic acid or aspartic acid-β-hydrazide, and absorbance of the medium was measured at 660 nm with the passage of time, thereby growth was monitored.
Further, when these compounds were present at their growth inhibitory concentrations, it was investigated whether or not the inhibition was recovered by addition of nucleic acids (each of uridine, adenosine: 10 mg/dl), glutamic acid or amino acids of the aspartic acid family (Asp: 0.025%, each of Met, Thr, Lys: 0.1%).
Further, growth recovery of Escherichia coli, in the case of addition of the aforementioned inhibition recovering substances alone or as a mixture of 2 species or 3 species, is shown in FIGS. 4-6. […]

[1] = test system: phosphoenolpyruvate carboxylase; experiment: Sensitivity of phosphoenolpyruvate carboxylase activity to aspartic acid; format: biochemical, Escherichia coli
Excerpt: When the microorganism transformed with the DNA sequence of the present invention as described above is cultivated, and this DNA sequence is expressed, then a mutant enzyme is obtained. It becomes apparent, by measuring the activity by adding aspartic acid to an enzyme reaction system, whether or not the mutant enzyme thus obtained has desensitized feedback inhibition by aspartic acid. It is possible for the measurement of the enzyme activity to use a spectrometric method (Yoshinage, T., Izui, K. and Katsuki, H., J. Biochem., 68, 747-750 (1970)) and the like.
(§1) Sensitivity to aspartic acid was investigated in accordance with a known method (Yoshinaga, T., Izui, K. and Katsuki, H., J. Biochem., 68, 747-750 (1970)). Namely, as a result of measurement of the enzyme activity produced by each of the transformants or Escherichia coli harboring pS2 in the presence of acetyl-coenzyme A known to affect the activity in an activity measurement system at a concentration of 0.1 mM or 1 mM, sensitivity to aspartic acid was measured as shown in FIGS. 9 and 10.
as §1, with “activity” for “activity produced by each of the transformants or Escherichia coli harboring pS2”, “of 1” for “of 0.1”, “or 2” for “or 1”, “in FIG. 12.” for “in FIGS. 9 and 10.”
as §1, with “activity” for “activity produced by each of the transformants or Escherichia coli harboring pS2”, “of 1” for “of 0.1”, “or 2” for “or 1”, “in FIG. 13.” for “in FIGS. 9 and 10.”

N[C@H](C(=O)O)[C@H](O)C(=O)O (relative stereo) [DL-threo-β-hydroxyaspartate]
growth inhibition of Escherichia coli (Escherichia coli HB101): growth inhibition

NNC(=O)CC(N)C(=O)O (stereo not drawn) [aspartate-β-hydrazide]
growth inhibition of Escherichia coli (Escherichia coli HB101): growth inhibition

B1: wild type enzyme: wild type phosphoenolpyruvate carboxylase of Escherichia coli, expressed from pS2 or pT2 (protein, UniProt P00864 1-883, looked up)
Phosphoenolpyruvate …: MNEQYSALRSNVSMLGKVLGETIKDALGEHILERVETIRKLSKSSRAGNDANRQELLTTLQNLSNDELLPVARAFSQFLNLANTAEQYHSISPKGEAASNPEVIARTLRKLKNQPELSEDTIKKAVESLSLELVLTAHPTEITRRTLIHKMVEVNACLKQLDNKDIADYEHNQLMRRLRQLIAQSWHTDEIRKLRPSPVDEAKWGFAVVENSLWQGVPNYLRELNEQLEENLGYKLPVEFVPVRFTSWMGGDRDGNPNVTADITRHVLLLSRWKATDLFLKDIQVLVSELSMVEATPELLALVGEEGAAEPYRYLMKNLRSRLMATQAWLEARLKGEELPKPEGLLTQNEELWEPLYACYQSLQACGMGIIANGDLLDTLRRVKCFGVPLVRIDIRQESTRHTEALGELTRYLGIGDYESWSEADKQAFLIRELNSKRPLLPRNWQPSAETREVLDTCQVIAEAPQGSIAAYVISMAKTPSDVLAVHLLLKEAGIGFAMPVAPLFETLDDLNNANDVMTQLLNIDWYRGLIQGKQMVMIGYSDSAKDAGVMAASWAQYQAQDALIKTCEKAGIELTLFHGRGGSIGRGGAPAHAALLSQPPGSLKGGLRVTEQGEMIRFKYGLPEITVSSLSLYTGAILEANLLPPPEPKESWRRIMDELSVISCDVYRGYVRENKDFVPYFRSATPEQELGKLPLGSRPAKRRPTGGVESLRAIPWIFAWTQNRLMLPAWLGAGTALQKVVEDGKQSELEAMCRDWPFFSTRLGMLEMVFAKADLWLAEYYDQRLVDKALWPLGKELRNLQEEDIKVVLAIANDSHLMADLPWIAESIQLRNIYTDPLNVLQAELLHRSRQAEKEGQEPDPRVEQALMVTIAGIAAGMRNTG
enzyme activity at high aspartic acid concentration (sensitivity to aspartic acid) ([1]; Example 2, acetyl-coenzyme A 0.1 mM or 1 mM, FIGS. 9 and 10): loses its activity
enzyme activity at high aspartic acid concentration (sensitivity to aspartic acid) ([1]; Example 6 <3>, pT2R438C (438th Arg to Cys), acetyl-coenzyme A 1 mM or 2 mM, FIG. 12): substantially loses its activity
enzyme activity at high aspartic acid concentration (sensitivity to aspartic acid) ([1]; Example 6 <5>, pT2K620S, acetyl-coenzyme A 1 mM or 2 mM, FIG. 13): substantially loses its activity
